Experimental findings from US20200332009A1 (Innovent, published 2020) are described below.

Read-outs that look alike come from different tables or passages of the source.

The target of assay [1] is T1, human PD-L1 (purchased from Acrobiosystems) (human, UniProt Q9NZQ7 19-238).
T1 construct: also called hPD-L1
As to the kind of experiment: biological optical interferometry (ForteBio), antibody on sensor, antigen in solution. On the procedure:
(§1) SD buffer, antibodies, and antigens (including human PD-L1, mouse PD-L1 and Macaca fascicularis PD-L1, all purchased from Acrobiosystems) each of 100 μL were added to 96-well black polystyrene half area microplates (Greiner, 675076). The sensors were arranged according to the positions of the samples. The instrument settings were as follows: the operation procedures were Baseline, Loading ˜1 nm, Baseline, Association, and Dissociation. The run time of each procedure was dependent on the rates of association and dissociation. The rotation speed was 400 rpm, and the temperature was 30° C. The KD values were analyzed by ForteBio analysis software.
The equilibrium dissociation constant (KD) binding of the humanized antibodies of different Fc subtypes of the invention to human PD-L1 was determined by ForteBio. The ForteBio affinity assay was shown in Example 2.

Assay [2] concerns the target T2, human PD-L1 overexpressed on CHO cells (CHO-PDL1) (human, UniProt Q9NZQ7 19-290).
T2 construct: whole, on cells; also called CHO cells overexpressing human PD-L1
Description: flow cytometry (FACS) on CHO-PDL1 cells.

Assay [3] addresses PD-L1 on CHOK1-PDL1 cells (Promega PD-1/PD-L1 Blockade Bioassay) (UniProt Q9NZQ7 19-290, limits assumed). Description: cell-based or functional assay.
Assay [4] has as its target T1, human PD-L1 (purchased from …). As to the kind of experiment: biological optical interferometry (ForteBio), antibody on sensor, antigen in solution. On the procedure:
The equilibrium dissociation constant (KD) for binding of the antibody of the invention to human PD-L1 was determined by biological optical interferometry (ForteBio). A ForteBio affinity assay of prior art was performed (Estep, P., et al, High throughput solution based measurement of antibody-antigen affinity and epitope binning. MAbs, 2013.5(2):270-8).
as §1
The source holds these as a separate data set. In general terms: Biolayer interferometry detects binding as a change in optical thickness at a sensor tip.

Assay [5] deals with T2, human PD-L1 overexpressed on CHO cells …. Description: flow cytometry (FACS) on CHO-PDL1 cells; the table gives no unit, the axis is Con(nM); the text gives this value to 4-26.6. On the procedure: (§2) CHO-PDL1 cells were counted, diluted to 1×10⁶ cells/mL, and added to each well of a U-shaped bottom 96-well plates at 100 μL/well. The suspension was centrifuged at 400 g for 5 min, and the supernatant was discarded. […] The cells were resuspended to a volume of 100 μL/well, and then left on ice for 30 min. The suspension was centrifuged at 400 g for 5 min, and the supernatant was discarded. The cells were washed once with PBS. The mixture was centrifuged at 400 g for 5 min, and the supernatant was discarded. 100 μL of FITC-labeled secondary antibody for anti-mouse-Fab (Jackson Immuno Research) (diluted in PBS in 1:500) was added per well, and 100 μL of FITC-labeled secondary antibody for anti-human-Fab (Jackson Immuno Research) was added to the cells to which the positive control antibody was added. The cells were incubated for 30 min on ice in the dark. The cells were centrifuged at 400 g for 5 min with the supernatant being discarded, and were washed once with a PBS. The cells were resuspended with 100 μL of 1×PBS, and detected by FACS.

The target is the same in assay [6]. As to the kind of experiment: flow cytometry (FACS) on CHO-PDL1 cells; the table gives no unit, the axis is Con(nM); the text gives this value to 4-79.2. On the procedure: as §2
For orientation: Flow cytometry measures light scatter and fluorescence of single cells or particles in a stream.

Another assay has as its target T3, human LAG-3-His (human, UniProt P18627 23-450).
T3 construct: also called hLAG-3; human LAG-3 antigen (ArcoBiosystems); not shown: His tag
T3 sequence (looked up): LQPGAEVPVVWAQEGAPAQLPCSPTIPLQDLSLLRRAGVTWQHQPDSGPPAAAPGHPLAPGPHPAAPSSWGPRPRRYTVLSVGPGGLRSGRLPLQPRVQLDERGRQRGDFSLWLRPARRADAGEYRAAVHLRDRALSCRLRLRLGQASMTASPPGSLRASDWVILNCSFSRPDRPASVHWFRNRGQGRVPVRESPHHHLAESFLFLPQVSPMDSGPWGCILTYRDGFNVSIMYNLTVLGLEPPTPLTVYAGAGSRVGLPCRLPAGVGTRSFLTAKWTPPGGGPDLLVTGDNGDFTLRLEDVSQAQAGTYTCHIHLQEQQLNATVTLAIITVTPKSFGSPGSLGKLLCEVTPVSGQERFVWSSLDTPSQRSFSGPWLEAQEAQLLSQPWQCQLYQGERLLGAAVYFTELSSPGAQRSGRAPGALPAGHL
Description: biological optical interferometry (ForteBio), antibody on AHQ tip, human LAG-3-His 100 nM in solution, univalent, 1:1 model. On the procedure: The equilibrium dissociation constant (KD) for binding of ADI31853 to human LAG-3 (hLAG-3) was measured by biological optical interferometry (ForteBio). A ForteBio affinity assay of prior art was performed (Estep, P., et al, High throughput solution based measurement of antibody-antigen affinity and epitope binning. MAbs, 2013.5(2):270-8). Briefly, the sensor was equilibrated offline in assay buffer for 30 minutes, and on-line detection was then conducted for 60 seconds to establish a baseline. The purified antibody obtained as described above was loaded on-line onto an AHQ sensor (ForteBio) for ForteBio affinity assay. The sensor with the loaded antibody was then exposed to 100 nM of a human LAG-3 antigen (ArcoBiosystems) for 5 minutes before transferring the sensor to the assay buffer for dissociation for 5 minutes for dissociation rate measurement. Kinetic analysis was performed using a 1:1 binding model.

Chain of PD-L1 on CHOK1-PDL1 cells (Promega PD-1/PD-L1 Blockade Bioassay) (Q9NZQ7 19-290 limits assumed): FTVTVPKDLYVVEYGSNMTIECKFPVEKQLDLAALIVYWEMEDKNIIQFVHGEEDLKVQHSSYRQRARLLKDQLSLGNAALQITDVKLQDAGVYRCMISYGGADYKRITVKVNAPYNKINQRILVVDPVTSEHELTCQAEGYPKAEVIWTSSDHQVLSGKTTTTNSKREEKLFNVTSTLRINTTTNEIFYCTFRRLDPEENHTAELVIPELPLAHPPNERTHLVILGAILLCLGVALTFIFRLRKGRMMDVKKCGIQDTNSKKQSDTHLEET
T2 sequence (Q9NZQ7 19-290): as the sequence (Q9NZQ7 19-290 limits assumed) above
T1 sequence (Q9NZQ7 19-238 limits assumed): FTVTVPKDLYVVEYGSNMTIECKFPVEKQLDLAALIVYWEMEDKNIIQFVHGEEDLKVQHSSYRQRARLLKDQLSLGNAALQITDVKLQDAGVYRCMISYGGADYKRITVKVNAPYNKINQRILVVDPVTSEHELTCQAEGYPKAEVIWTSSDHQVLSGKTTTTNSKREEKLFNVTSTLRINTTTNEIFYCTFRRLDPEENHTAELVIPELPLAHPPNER

B1: HZ3266-IgG1N297A (antibody)
heavy: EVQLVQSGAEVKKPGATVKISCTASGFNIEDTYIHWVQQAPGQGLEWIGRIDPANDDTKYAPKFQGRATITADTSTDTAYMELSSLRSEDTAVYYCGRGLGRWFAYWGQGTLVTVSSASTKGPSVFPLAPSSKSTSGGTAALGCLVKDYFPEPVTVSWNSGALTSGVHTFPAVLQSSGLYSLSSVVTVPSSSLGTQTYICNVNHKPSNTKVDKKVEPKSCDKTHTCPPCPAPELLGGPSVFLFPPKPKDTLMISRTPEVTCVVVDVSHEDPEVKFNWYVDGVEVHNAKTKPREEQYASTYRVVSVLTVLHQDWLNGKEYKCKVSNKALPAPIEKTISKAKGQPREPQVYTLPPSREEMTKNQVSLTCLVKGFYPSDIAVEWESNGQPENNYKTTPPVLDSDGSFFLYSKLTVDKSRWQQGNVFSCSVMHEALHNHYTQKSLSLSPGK
light: GIVMTQSPDSLAVSLGERATINCKASQDVINAVAWYQQKPGQSPKLLIYSASNRYTGVPDRFSGSGSGTDFTLTISSLQAEDLAVYYCQQHYSPPLTFGGGTKVEIKRTVAAPSVFIFPPSDEQLKSGTASVVCLLNNFYPREAKVQWKVDNALQSGNSQESVTEQDSKDSTYSLSSTLTLSKADYEKHKVYACEVTHQGLSSPVTKSFNRGEC
notes: Humanized form of 3-266.1, human IgG1 with N297A, kappa
By Kd is commonly meant the equilibrium constant for the complex coming apart. Read a low Kd as a tighter complex. Usually EC50 stands for the concentration at which the effect is half-maximal. For the molecule B1, the equilibrium dissociation constant (Kd) in assay [1] worked out at 0.724 nM. Moreover, the EC50 in assay [2] was found to be 1.78 nM. Moreover, the “EC50 of the NFAT luciferase reporter signal (blockade of PD-1 on Jurkat-PD1 cells binding PD-L1 on CHOK1-PDL1 cells)” value in assay [3] worked out at 0.967 nM.

B2: HZ3266-IgG4PAAK (antibody)
heavy: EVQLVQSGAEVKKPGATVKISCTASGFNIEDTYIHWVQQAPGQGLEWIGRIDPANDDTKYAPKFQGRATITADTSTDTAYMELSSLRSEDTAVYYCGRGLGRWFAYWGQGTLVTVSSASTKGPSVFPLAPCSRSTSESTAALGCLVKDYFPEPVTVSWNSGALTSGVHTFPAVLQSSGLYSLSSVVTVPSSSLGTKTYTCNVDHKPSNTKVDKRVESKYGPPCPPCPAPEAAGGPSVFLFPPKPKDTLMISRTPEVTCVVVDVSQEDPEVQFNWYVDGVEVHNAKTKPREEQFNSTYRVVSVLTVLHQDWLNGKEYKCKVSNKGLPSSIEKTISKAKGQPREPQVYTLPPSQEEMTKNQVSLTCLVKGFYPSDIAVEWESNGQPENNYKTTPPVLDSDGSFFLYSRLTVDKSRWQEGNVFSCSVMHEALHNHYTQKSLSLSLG
light: GIVMTQSPDSLAVSLGERATINCKASQDVINAVAWYQQKPGQSPKLLIYSASNRYTGVPDRFSGSGSGTDFTLTISSLQAEDLAVYYCQQHYSPPLTFGGGTKVEIKRTVAAPSVFIFPPSDEQLKSGTASVVCLLNNFYPREAKVQWKVDNALQSGNSQESVTEQDSKDSTYSLSSTLTLSKADYEKHKVYACEVTHQGLSSPVTKSFNRGEC
notes: Humanized form of 3-266.1, mutated human IgG4 constant region, kappa; also called HZ3266-G4PAAK; HZ3266-IgG4PAK
In assay [1], B2 returned a Kd of 1.32 nM. The same molecule registered an EC50 in assay [2] of 1.86 nM.

B3: HZ3266-IgG1 (antibody)
heavy: not shown
light: GIVMTQSPDSLAVSLGERATINCKASQDVINAVAWYQQKPGQSPKLLIYSASNRYTGVPDRFSGSGSGTDFTLTISSLQAEDLAVYYCQQHYSPPLTFGGGTKVEIKRTVAAPSVFIFPPSDEQLKSGTASVVCLLNNFYPREAKVQWKVDNALQSGNSQESVTEQDSKDSTYSLSSTLTLSKADYEKHKVYACEVTHQGLSSPVTKSFNRGEC
notes: Humanized form of 3-266.1, human IgG1, kappa
With B3, the Kd in assay [1] worked out at 0.935 nM. Moreover, the EC50 in assay [2] came out at 1.81 nM. Further, the “EC50 of the NFAT luciferase reporter signal (blockade of PD-1 on Jurkat-PD1 cells binding PD-L1 on CHOK1-PDL1 cells)” value in assay [3] was determined as 0.623 nM.

B4: 3-266.1 (antibody, human IgG1, kappa, N297A, V domains shown)
VH: EVQLQQSVAELVKPGASVKLSCTASGFNIEDTYIHWVKQRPEQGLEWIGRIDPANDDTKYDPKFQGKATITADTSSNTAYLQLSSLTPEDTAVYYCGRGLGRWFAYWGQGTLVTVSA
VL: SIVMTQSHKFMSTSIGDRVNISCKASQDVINAVAWCQQKPGQSPKLLIYSASNRYTGVPDRFTGSGSGTDFTFTISSVQAEDLAVYYCQQHYSPPLTFGGGTKLELKR
notes: also called chimeric antibody 3-266.1
B4 yielded an EC50 in assay [2] of 2.14 nM. The dissociation constant Kd in assay [4] came to 0.98 nM.

B5: 4-79.2 (antibody, human IgG1, kappa, N297A, V domains shown)
VH: EVQLQQSGPSLVKPSQTLSLTCSVTGDSITSGYWNWIREFPGNKLEYLGYISYTGSTYYNPSLKSRISITRDTSKNQYSLQLNSVTTEDTATYYCAKAPRWLSAMDYWGQGTSVTVSS
VL: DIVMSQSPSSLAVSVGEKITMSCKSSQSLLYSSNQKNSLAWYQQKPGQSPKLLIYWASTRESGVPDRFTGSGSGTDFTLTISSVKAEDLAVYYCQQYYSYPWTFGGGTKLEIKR
notes: Same remark on anti-mouse detection reagents as for 3-266.1; also called chimeric antibody 4-79.2
Turning to B5, the EC50 in assay [2] was found to be 2.6 nM; in assay [5], 1.99 nM. The molecule also showed a Kd in assay [4] of 7.56 nM.

B6: HZ4485-IgG1N297A (antibody, V domains shown)
VH: QVQLVQSGAEVAKPGASVKVSCKASGYTFTTYTMHWVRQRPGQGLEWIGNINPNSDYAIYAQKFQGRATMTADKSTNTAYMELSSLRSEDSAVYYCAKQSFDYWGQGTLVTVSS
VL: DIVLTQSPASLAVSPGQRATITCRASESVEFYGTSLLQWYQQKPGQPPKLLIYAASNVESGVPARFSGSGSGTDFTLTINPVEADDTANYYCHQGRKVPYTFGQGTKLEIKR
notes: Humanized form of 4-48.5, human IgG1 with N297A, kappa
As for B6, the Kd in assay [1] was 3.17 nM. In addition, in assay [2], the EC50 was 1.56 nM. In addition, the “EC50 of the NFAT luciferase reporter signal (blockade of PD-1 on Jurkat-PD1 cells binding PD-L1 on CHOK1-PDL1 cells)” value in assay [3] was 0.683 nM.

B7: 4-48.5 (antibody, human IgG1, kappa, N297A, V domains shown)
VH: EVQLQQSGAELARPGASVKMSCKASGYTFTTYTMHWVKQRPGQGLEWIGNINPNSDYAIYNQKFKDKATLTADKSSNTAYMQLSGLTSEDSAVYYCAKQSFDYWGQGTTLTVSS
VL: DIVLTQSPASLAVSLGQRATISCRASESVEFYGTSLLQWYQQKPGQPPKLLIYAASNVESGVPARFSGSGSGTDFSLNIHPVEVDDVALYFCHQGRKVPYTFGGGTKLEIKR
notes: Same remark on anti-mouse detection reagents as for 3-266.1; also called chimeric antibody 4-48.5
B7: the concentration giving a half-maximal response (EC50) in assay [2] was 2 nM. Further, in assay [4], the Kd came to 1.23 nM.

B8: 4-26.6 (antibody, human IgG1, kappa, N297A, V domains shown)
VH: QVQLKESGPSLVKPSQTLSLTCSVTGDSITSGYWNWIRKFPGNKLEYMGYISYSGSTYHNPSLKSRISITRDTSKNQFYLQLNSVTKEDTATYYCARGDLWPPWFAYWGQGTLVTVSA
VL: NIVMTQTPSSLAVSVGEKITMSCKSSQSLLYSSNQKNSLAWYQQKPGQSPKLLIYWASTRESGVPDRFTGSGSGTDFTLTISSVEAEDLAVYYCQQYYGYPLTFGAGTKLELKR
notes: Same remark on anti-mouse detection reagents as for 3-266.1; also called chimeric antibody 4-26.6
In the case of B8, the EC50 in assay [2] came out at 1.99 nM; in assay [6], 2.6 nM. Also, binding in assay [4] was characterised by a dissociation constant (Kd) of 3.85 nM.

B9: ADI-31853 (antibody, human IgG4 S228P, kappa, F234A L235A, V domains shown)
VH: QLQLQESGPGLVKPSETLSLTCTVSGGSIYSESYYWGWIRQPPGKGLEWIGSIVYSGYTYYNPSLKSRVTISVDTSKNQFSLKLSSVTAADTAVYYCARVRTWDAAFDIWGQGTMVTVSS
VL: DIQMTQSPSSLSASVGDRVTITCQASQDISNYLNWYQQKPGKAPKLLIYDASNLETGVPSRFSGSGSGTDFTFTISSLQPEDIATYYCQQVLELPPWTFGGGTKVEIKR
notes: also called anti-human-LAG-3 antibody
As usually defined, the koff is a measure of how fast the partners let go of each other. What is called kon is the second-order rate constant of association. In the case of B9, in the assay with human LAG-3-His, the Kd amounted to 0.622 nM, the koff is 0.0002 s⁻¹ and the kon worked out at 322000 M⁻¹ s⁻¹.
